Experimental data as given in the supplement of paper PMC12764529.
± gives the half width of the 95% confidence interval.

Legend:
[1] = folding stability dG unfold from trypsin proteolysis; higher = more stable
Summary of the method: (§1)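 K50 was inferred by Bayesian fitting of sequencing counts obtained after protease digestion of designed mini-proteins. Unfolding free energy was derived by comparison with a sequence-predicted unfolded-state K50 and a shared folded-state K50, for each protease or both combined. The mini-proteins were under 80 residues, had no cysteine, were carried in a PA-tagged cDNA display construct, and were kept only if AlphaFold2 dimer inter-PAE exceeded 15.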

[2] = folding stability dG unfold (combined trypsin and chymotrypsin); higher = more stable
Summary of the method: as §1

[3] = folding stability dG unfold from chymotrypsin proteolysis; higher = more stable
Summary of the method: as §1

Row | Sequence | folding stability dG unfold [1] | folding stability dG unfold [2] | folding stability dG unfold [3]
1 | SAGFGVYKHKYKYDNDDGNPKPKKPEEEPVEPAPPIEPLPIPIRLPDGQPFTFTILSISPKNNNISLNGSAG [r5_735_TrROS] | 0.279 ± 0.22 kcal/mol | 0.452 ± 0.2 kcal/mol | 0.382 ± 0.2 kcal/mol
2 | SAGFKIDDVETEKDPDGEKEITFRYVDPGDGRPWMLNLRINPNGKLTEENPVPFDDFPPGSYWTIRIKSAGG [r19_393_TrROS] | 0.636 ± 0.14 kcal/mol | 0.402 ± 0.18 kcal/mol | -0.0517 ± 0.41 kcal/mol
3 | SAGFKIKIEPDKNMPPGQKPMTEEELKKIAKSIAKQMEQDPGNPGKEVKIEIPFYFPDGYWYRIEIEKSAGG [r19_132_TrROS] | 0.259 ± 0.19 kcal/mol | 0.506 ± 0.34 kcal/mol | 0.647 ± 0.29 kcal/mol
4 | SAGFQIERKRDPDGKYEVEIKFPHPDGHPMRVKIPINPKEGKIKIDEIESTNPGHKQRMEELARWFLKASAG [r5_266_TrROS] | -0.4 ± 0.29 kcal/mol | -0.44 ± 0.16 kcal/mol | -0.526 ± 0.38 kcal/mol
5 | SAGFSVEVTYNPPTGYLEIRFYNPPPNKPLKKETLEEIARKLLEELGIEGEIVEIKEEGNVYTIKVKIPSAG [r14_556_TrMRF] | 4.56 ± 0.19 kcal/mol | 4.62 ± 0.084 kcal/mol | 4.65 ± 0.068 kcal/mol
6 | SAGFTIEIENEDGKKITFRFPGWKIEIYPKDGIIMMRYPEENMSIMIKVDPNKIKIQVYDGGKWRWFPISAG [r5_786_TrROS] | 2.86 ± 0.13 kcal/mol | 3.69 ± 0.47 kcal/mol | 3.92 ± 0.08 kcal/mol
7 | SAGFWIRIDPKNPRIYISGMPPGMIELIAENAGAPDVTPVKPGRPWWDARDNHPDPDAVIPIPPENMMSAGG [r19_270_TrROS] | 0.319 ± 0.16 kcal/mol | 0.0233 ± 0.24 kcal/mol | -0.39 ± 0.39 kcal/mol
8 | SAGGAEEIRKELGISPEEKVTVKLVVPEGGRPREFTVEMKPDELEKVLEELGVPPEKLEITEVEVIEESAGG [r13_681_JUSTAS] | -1.39 ± 0.38 kcal/mol | -0.456 ± 0.21 kcal/mol | -0.121 ± 0.21 kcal/mol
9 | SAGGAEELAKALADELRKLFPGEEIEVTVELVEVEVEPGQKVTLPDGSTVEVPPGAKVLVLKITVKPSAGGS [r16_357_TrROS_Hall] | 3.13 ± 0.16 kcal/mol | 3.44 ± 0.14 kcal/mol | 3.56 ± 0.13 kcal/mol
10 | SAGGAEVDPETKVVHIRIRARSAEELLAAIEALPADEVIIEVYNEETGKTERIRLSREELRKLLEEASAGGS [r16_797_TrROS_Hall] | 1.92 ± 0.021 kcal/mol | 2.54 ± 0.031 kcal/mol | 2.82 ± 0.018 kcal/mol
11 | SAGGAFEMSNEYWFPDGFRVKLKVEVYPNGMFMLDLEIEPIPPPPPIKIEKDPDGEYKYDPNGQPQKDSAGG [r13_151_TrROS] | 2.58 ± 0.18 kcal/mol | 2.91 ± 0.38 kcal/mol | 3.36 ± 0.18 kcal/mol
12 | SAGGAFIKDFDVEEDPNGHRKFKFELPNGWKYDITIHPDFPQIEIKPIKPIEPPPIPADDPEQAEEQSAGGS [r16_482_TrROS] | 0.699 ± 0.11 kcal/mol | 0.552 ± 0.37 kcal/mol | 0.429 ± 0.47 kcal/mol
13 | SAGGAGPEKAEELARALAAELEEEGREWRFKITYSAEPEILSIDVYPLSEPLVDDAKPGYRTLYYDAPSAGG [r13_693_TrMRF] | 0.659 ± 0.093 kcal/mol | 0.957 ± 0.12 kcal/mol | 1.19 ± 0.29 kcal/mol
14 | SAGGALDAIKNIAEKFGFPEIEDIDIDPDNGWLSFRFRGPEPVYIKIPWKPDKNGNLPVNIEVYPMDDSAGG [r13_410_TrROS] | 1.48 ± 0.041 kcal/mol | 1.65 ± 0.13 kcal/mol | 1.88 ± 0.11 kcal/mol
15 | SAGGALEKILEAIENAPTSVPEVTVEIELPTGTLKATITNKGKPVLITIELTHPDGSKSTITLTFSLSAGGS [r16_642_TrMRF] | 2.78 ± 0.091 kcal/mol | 3.78 ± 0.063 kcal/mol | 4.28 ± 0.079 kcal/mol
16 | SAGGAMPVELVETLEEIPGKGIVLRKFRDPLSDKWFLATVPVETLPNGEKKYLIELNIDGSGMTLELGSAGG [r13_993_JUSTAS] | 0.0151 ± 0.099 kcal/mol | 0.173 ± 0.17 kcal/mol | 0.11 ± 0.22 kcal/mol
17 | SAGGAPVSVSTSTLPDGRTVTTTTYPSGSTTTTITDPVTGATATASSPGSGTTTFTDPATGATTVVGSAGGS [r16_91_JUSTAS] | 1.36 ± 0.053 kcal/mol | 1.02 ± 0.065 kcal/mol | 0.635 ± 0.029 kcal/mol
18 | SAGGAPVTTFSLTLENPETGLNWTSTSATYDPATGTLTLNLKRPQSGESLTLTTPVTVVSPEEPELASAGGS [r8_193_JUSTAS] | 0.699 ± 0.052 kcal/mol | 0.813 ± 0.11 kcal/mol | 0.819 ± 0.084 kcal/mol
19 | SAGGARVFEVTFPDGSRARIVLLPDGTLLLETDSLDNLVALLEALGVELVSIRRHPDGRVLAVARLPPSAGG [r19_257_TrMRF] | 4.49 ± 0.14 kcal/mol | 4.43 ± 0.082 kcal/mol | 4.32 ± 0.14 kcal/mol
20 | SAGGASFSLSEGYDPSLGKTFTRETEAPEVPVPPVTVVPLSEIGRLKAEGVPPSWTVDPETGTVTVTSAGGS [r16_194_JUSTAS] | -0.647 ± 0.19 kcal/mol | 0.258 ± 0.059 kcal/mol | 0.564 ± 0.072 kcal/mol
21 | SAGGATFAPGQTITVTVTVTLADGSTVTVTATVRIEVRAAPAPPVTVTNADGSTRTFTSAEEARAAASAGGS [r16_580_TrROS_Hall] | 1.46 ± 0.033 kcal/mol | 1.01 ± 0.098 kcal/mol | 0.211 ± 0.25 kcal/mol
